Source: US6720475, “Nucleic acid sequence encoding FLP recombinase” (Pioneer Hi-Bred International, Inc.)
Where a chain is given by its changes, count along the chain named.

Assays:
[1] = biological target: T1, FLPy (FLP recombinase from native yeast gene) (Saccharomyces cerevisiae, UniProt P03870 SEQ:1-423); experiment: cell_activity; ED50 for excision between genomic FRT sites in BMS cells, PHP5095 plasmid dose; conditions: tags: expressed in maize cells; chain copies: 4
T1 sequence: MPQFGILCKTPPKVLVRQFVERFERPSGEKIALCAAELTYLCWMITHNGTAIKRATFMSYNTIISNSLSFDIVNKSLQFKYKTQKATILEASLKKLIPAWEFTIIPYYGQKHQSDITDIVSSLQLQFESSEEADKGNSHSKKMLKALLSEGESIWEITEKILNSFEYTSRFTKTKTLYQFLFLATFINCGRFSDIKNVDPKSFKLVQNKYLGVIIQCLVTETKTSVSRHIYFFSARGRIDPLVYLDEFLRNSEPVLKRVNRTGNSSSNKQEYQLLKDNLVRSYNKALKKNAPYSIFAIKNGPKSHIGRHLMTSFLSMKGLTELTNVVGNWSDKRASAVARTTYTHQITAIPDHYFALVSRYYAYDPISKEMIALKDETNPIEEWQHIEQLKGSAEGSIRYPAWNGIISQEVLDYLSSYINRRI
Source text: (§1) The moFLP gene produces higher levels of site-specific excision in maize cells than FLPy. The FRT-containing BMS transformants produced in Example IIA were transfected with varied doses of FLP-expressing vectors for site specific excision of genomic transgenic sequences using the methods described above for Example II-C. Plasmids expressing FLP, PHP5095 (FLPy), and PHP5096 (moFLP) are described above for Example I-A (see Table I-A-1). The FRT/moFLP-containing PHP5849 is described above for Example I-F (see Table I-F-1). Control plasmids used were PHP3703 (non-FLP negative control; with UBI promoter and intron, wheat germ agglutinin structural gene, and pinII 3' end), PHP3953 (positive control; with UBI promoter and intron, GUS structural gene, and pinII 3' end), and pUC18 (with no plant expression cassette used as carrier DNA to keep the total DNA load constant). Cell culture methods, DNA bombardment methods, and assay methods were those described above for Example I. The experimental design is shown below in Table II-D-1.
(§2) GUS activity indicating FLP-mediated excision of genomic DNA in cells transfected with FLYy or moFLP is shown below in Tables II-D-2 and II-D-3. The $ED50$ for each FLP expression plasmid shown in Table II-D-3 was manually determined from graphing the data.

[2] = biological target: T2, moFLP (FLP recombinase from maize-codon-optimized gene) (Saccharomyces cerevisiae, UniProt P03870 SEQ:1-423); experiment: cell_activity; ED50 for excision between genomic FRT sites in BMS cells, PHP5096 plasmid dose; conditions: chain copies: 4
T2 chain: T1 sequence with G5D
Source text: as §1, §2

B1: FRT site (FRT-1) (dsDNA)
DNA 1: GAAGTTCCTATTCTCTAGAAAGTATAGGAACTTC
DNA 2: GAAGTTCCTATACTTTCTAGAGAATAGGAACTTC
- EC50 [1]: 0.13 ug FLP expression vector
- EC50 [2]: 0.03 ug FLP expression vector
